Reference: the supplement of paper PMC10567573

B1: NET1 (parent)
chain: RVRPLARVTSLANLISPVRNGAVR
B2: DLC1 (parent)
chain: AIQGISEKEKAEIEAKEACDWLRA

Variants of: B1
Experiment: protein stability index of a GFP-peptide fusion (GPS, HEK-293T) (PSI 1-6); higher = more stable
Settings: c terminus: a fixed tail appended
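Note: lentivirally expressed fusions sorted by FACS into six bins by GFP to DsRed ratio, PSI derived from sequencing read proportions per bin multiplied by bin number.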

Protein stability index, by site and new letter:
A6: S 2.53; R 3.33; Y 2.02; H 2.69; M 3.18; V 3.36; T 2.9; W 2.35; P 3.04; E 3.06; D 2.95; F 2.71; K 2.74; C 2.98; N 2.93; G 3.98; L 2.72; I 2.76; Q 3.17
L5: E 3.61; G 2.5; S 3.6; R 3.2; V 3.59; W 2.03; C 3.04; Q 3.54; P 3.3; A 3.36; I 3.04; H 3.14; K 2.85; T 2.56; N 2.56; Y 2.59; M 2.55; F 2.71; D 3.04
S10: N 3.08; R 3.06; K 2.41; C 1.62; Q 3.42; L 1.43; A 2.51; D 2.54; P 3.01; G 2.52; H 2.54; W 1.99; I 3.84; V 3.11; F 1.46; M 1.78; E 3; Y 2.04
R1: N 3.42; I 2.81; V 2.15; D 3.73; F 3.21; P 3.11; Y 2.22; C 2.61; T 3.25; M 2.97; S 3.43; L 2; K 2.97; H 2.87; G 3.11; Q 3.19; W 2.36; E 2.79
R7: T 3.39; G 3.93; Q 3.37; M 2.64; A 3.88; D 2.84; W 2.79; P 3.81; E 2.5; Y 2.77; I 2.43; C 2.39; V 2.84; N 3.31; K 2.26; L 2.83; S 2.78; H 2.71; F 1.85
P4: I 1.4; M 1.43; Q 2.51; H 2.86; G 2.38; T 2.31; D 3.06; C 1.18; A 2.06; V 2.02; S 2.85; W 2.71; E 2; R 1.97; K 2.87; F 2.4; N 2.9
L11: G 3.25; Q 4.39; P 3.96; R 3.29; S 3.14; A 3.98; F 3.19; M 3.45; W 1.98; E 3.56; I 2.83; K 3.21; H 2.94; V 3.08; T 3.56; C 2.56; D 3.24; N 3.77; Y 2.43
R3: Q 3.33; W 1.91; S 3.03; G 3.1; H 2.67; A 3.02; C 1.72; V 2.6; Y 2.55; T 2.99; D 3.03; M 2.46; P 3.49; F 2.69; E 2.59; N 2.36; K 2.81; I 2.22; L 2.34
V2: W 2.67; G 3.08; Q 3.59; D 3.77; P 3.11; I 2.25; F 1.97; C 2.64; Y 2.62; T 3.14; S 3.57; N 2.79; A 3; E 3.69; H 2.91; R 2.92; L 2.29; M 3.04; K 3.65
V8: H 2.49; W 3.05; G 2.32; Q 2.73; C 2.93; P 3.1; I 2.38; L 2.65; E 3.54; N 2.87; D 3.63; T 3.76; A 4.44; M 2.79; S 3.99; F 2.28; R 2.92; Y 2.38; K 2.6
T9: K 3.69; Q 3.81; A 2.81; Y 3.12; F 2.85; E 2.87; I 1.84; M 2.66; L 2.09; C 3.08; N 3.38; H 2.75; V 2.96; S 3.45; D 3.73; W 3.24; R 2.76; G 3.68; P 2.74
A12: K 2.94; P 4.28; N 2.79; M 2.42; H 3.27; C 2.66; E 3.91; D 3.93; Q 3.71; I 2.58; L 2.77; F 2.14

Variants of: B2
Experiment: as above
Settings: c terminus: a fixed tail appended

Protein stability index, by site and new letter:
E7: V 3.88; A 4.25; H 3.86; N 3.72; W 3.58
I2: H 4.9; T 5; N 5.13; A 4.94; C 4.88; D 4.99; G 4.57
G4: I 3.15; R 3.08; Y 3.73; T 4.2; P 4.33; E 4.53
Q3: T 4.81; P 4.19; N 3.77; D 5.2; I 3.88
K16: F 3.61; D 5.1; Y 3.89; S 4.1; V 4.17; P 3.58; G 4.35
C19: W 4.45; G 4.43; M 4.39; Q 4.77; S 4.6; I 4.09; R 4.45
K10: L 4.08; C 4.54; V 3.9; G 4.17; E 4; P 4.18; A 4.67
A18: T 4.35; S 4.31; K 4.06
L22: W 4.28; D 5.49; R 4.5; H 5
A24: D 5.14; P 4.64; W 3.7
A1: T 4.6; C 4.09; P 4.47; G 4.58
E12: G 4.42; Y 3.53; C 3.85
E17: A 4.14; F 3.55; H 4.18
E9: D 4.2; W 3.63; S 4.22; I 3.29; Q 4.14; T 4.12; R 3.08
I5: W 4.47; Y 4.45; F 4.18
I13: G 5.08; C 5.09; T 4.16; A 4.7; K 4.89; S 4.85; R 4.53; Q 4.44; Y 4.46
D20: L 3.68; N 4.3; Y 3.97; T 4.12
E14: Q 4.36; T 4.34; V 3.24; C 4.07
S6: G 4.39; C 4.3; T 4.73; Q 4.74; N 4.54; A 4.31
K8: G 4.6; F 3.97; S 3.98; W 3.68; H 4.4
A11: N 4.5; Q 4.57; I 3.67
R23: A 4.67
A15: F 3.57; S 4.81; W 3.65; V 4.53; N 4.24; L 4; C 4.29
W21: I 4.62; Q 5.47; V 4.89; A 5.41
